# Laboratory results taken from the DeepSol protein solubility set.
# Assay: soluble on expression in E. coli; label from the status in PepcDB or PDB records
row,Sequence,soluble on expression in E. coli
1,STTIYDLKKQKDKLLKFYAESDEQILMKNRKTLHKAKNEDLDRVLKEWIRQRRSEHMPLNGMLIMKQAKIYHNELKIEGNCEYSTGWLQKFKKRHGIKFLKTCGNKASAGHEATEKFTGKFSNDDEQDGNFEGFSMSSEKKIMSDLLTYTKNIHPETVSKLEEEDIKDVFNSNNEAPVVHSLSNGEVTKMVLNQDDHDDNDNEDDVNTAEKVPIDDMVKMCDGLIKGLEQHAFITEQEIMSVYKIKERLLRQKASLMRQMTLKETFKKAIQRNASSSLQDPLLGPSTASDASSHLKIK,soluble
2,SVFADQVGVQVIGVNDFHGALDNTGTANMPDGKVANAGTAAQLDAYMDDAQKDFKQTNPNGESIRVQAGDMVGASPANSGLLQDEPTVKNFNAMNVEYGTLGNHEFDEGLAEYNRIVTGKAPAPDSNINNITKSYPHEAAKQEIVVANVIDKVNKQIPYNWKPYAIKNIPVNNKSVNVGFIGIVTKDIPNLVLRKNYEQYEFLDEAETIVKYAKELQAKNVKAIVVLAHVPATSKNDIAEGEAAEMMKKVNQLFPENSVDIVFAGHNHQYTNGLVGKTRIVQALSQGKAYADVRGVLDTDTQDFIETPSAKVIAVAPGKKTGSADIQAIVDQANTIVKQVTEA,not soluble
3,SVGREKELSIHFVPGSCRLVEEEVNIPNRRVLVTGATGLLGRAVHKEFQQNNWHAVGCGFRRARPKFEQVNLLDSNAVHHIIHDFQPHVIVHCAAERRPDVVENQPDAASQLNVDASGNLAKEAAAVGAFLIYISSDYVFDGTNPPYREEDIPAPLNLYGKTKLDGEKAVLENNLGAAVLRIPILYGEVEKLEESAVTVMFDKVQFSNKSANMDHWQQRFPTHVKDVATVCRQLAEKRMLDPSIKGTFHWSGNEQMTKYEMACAIADAFNLPSSHLRPITDSPVLGAQRPRNAQLDCSKLEILGIGQRTPFRIGIKESLWPFLIDKRWRQTVFH,soluble
4,SVKRKSSEGQEQDGGRGIPLPIQTFLWRQTSAFLRPKLGKQYEASCVSFERVLVENKLHGLSPALSEAIQSISRWELVQAALPHVLHCTATLLSNRNKLGHQDKLGVAETKLLHTLHWMLLEAPQDCNNERFGGTDRGSSWGGSSSAFIHQVENQGSPGQPCQSSSNDEEENNRRKIFQNSMATAELFVFLFAPLVHRIKESDLTFRLASGLVIWQPMWEHRQPGVSGFTALVKPIRNIITAKRSSPINSQSRTCESPNQDARHLEGLQVVRETFQSDSISPKATISGCHRGNSFDGSLSSQTSQERGPSHSRSTFHFPP,soluble
5,SVLLSRELHPVAPLLDNLISALNKVYQRKGVNISMDISPEISFVGEQNDFVEVMGNVLDNACKYCLEFVEISARQTDDHLHIFVEDDGPGIPHSKRSLVFDRGQRADTLRPGQGVGLAVAREITEQYAGQIIASDSLLGGARMEVVFGRQHPTQKEE,soluble
6,TAPSQVLKIRRPDDWHLHLRDGDMLKTVVPYTSEIYGRAIVMPNLAPPVTTVEAAVAYRQRILDAVPAGHDFTPLMTCYLTDSLDPNELERGFNEGVFTAAKLYPANAVTNSSHGVTSVDAIMPVLERMEKIGMPLLVHGEVTHADIDIFDREARFIESVMEPLRQRLTALKVVFEHITTKDAADYVRDGNERLAATITPQHLMFNRNHMLVGGVRPHLYCLPILKRNIHQQALRELVASGFNRVFLGTDSAPHARHRKESSCGCAGCFNAPTALGSYATVFEEMNALQHFEAFCSVNGPQFYGLPVNDTFIELVREEQQVAESIALTDDTLVPFLAGETVRWSVKQ,soluble
7,TDNFSWSTNLNFSYNDNKIKELVDDLPNGLTLTDFGGAKVILKEGGHYGDLYVRHLMRDENGKPLQNEKGEPIVSGDSMDELEYAGNMNAKVNMGWTNTFRYKDFSLSFLIDAKFGGKVISMTEAALDGWGVSKRSGEARDAGGITVDGVKFDADKYYRTTGNNNFNSPYAVENYVYDATNIRLREVTFGYTFRNLLGAGKNLTAAIIGRNLFFFHKDAPMDPDVSAGTGNGIQGVDMFALPTSRSFGLNLKLNF,not soluble
8,TEDFRWKTTFNYSQNRNKVVELAPNYTSFVYGDPGFSMAYMMQIKEGGSLGDIYGNTFARDEQGKIKVSDEGKPISESGNKTYLGNCNPDFLLSWANTFTYKGFSLYFLIDMRKGGDVMSLTQATLDGRGVTKATAEARDRGYVEVDGTRFENVEGFYSVVGDRNGISERYMYSATNIRLRELSLSYSFPSTLLAKTKVFTGIDVSLVGRNLFFFYKDAPFDPDAILSVGNTNQGVDVFGMPTTRNIGFNVKFTF,not soluble
9,TELTKCKVSHAIKDIDGYQGISLLEWACVLFHTSGYDTQAVVNDNGSTEYGLFQISDRFWCKSSEFPESENICGISCDKLLDDELDDDIACAKKILAIKGIDYWKAYKPMCSEKLEQWRCEKP,soluble
10,TKEGMLHYKAGTSYLGKEHWKTCFVVLSNGILYQYPDRTDVIPLLSVNMGGEQCGGCRRANTTDRPHAFQVILSDRPCLELSAESEAEMAEWMQHLCQAVSKGVIPQGVAPS,soluble
11,TKNWKWEMNFNIAKNSNKLVELADGVDSYSIYWTSFTTRLYNYAMVGKSLGVITGNTWERDDNGNIIFHELSASQKALYGGEYVPTYNQNTLDELGNFHPDFTGGFNTSISFKNFRLSANIDFSVGGQIVSYTNMWGSSSGILDKTAELNDRGVNVREPVSKGGGIHMTGVDQNGNKVDTYVNAKLYYTTASRVWEEWVYDRTYVKLREVSLSYVFPSQTLKKLNIGLSRASVAINASNPWLIYSACPNVDVSEIGMGYFEGGNAAATRSIGFTVNLAF,not soluble
12,TLFDGIARAVCRAGCLPRKELYEAWEVARRVRRRFRGGRVVDLACGHGLLAWIMLLLDDSSPGALAVDRRLPPSAAGLAAVLETEWPRLRGRVRLLEADLAEVELGRDDLVVSAHACGGLTDLVLARAVAAGARVAVLPCCHDLAGADLAGLQGWLDGPLAMDVLRATGLRERGYRVFTQQ,not soluble
13,TLTVNGPPIISSTQTQHALHGEKGQIKCFIRSTPPPDRIAWSWKENVLESGTSGRYTVETISTEEGVISTLTISNIVRADFQTIYNCTAWNSFGSDTEIIRLKEQGSEM,soluble
14,TMLCVLTTDAAAEPAALERALRRAAAATFDRLDIDGSCSTNDTVLLLSSGASEIPPAQADLDEAVLRVCDDLCAQLQADAEGVTKRVTVTVTGAATEDDALVAARQIARDSLVKTALFGSDPNWGRVLAAVGMAPITLDPDRISVSFNGAAVCVHGVGAPGAREVDLSDADIDITVDLGVGDGQARIRTTDLSHAYVEENSAYSS,soluble
15,TMNPLYSVKRAEKRRNVVLGRMLEVGKITQQQYEQAKAETVTATFYGTALEFRADYVTEMIRQEMVKRYGEDVAYNKGF,not soluble
16,TNLISVNSRSYRLSSAPTIVICVDGCEQEYINQAIQAGQAPFLAELTGFGTVLTGDCVVPSFTNPNNLSIVTGAPPSVHGICGNFFFDQETQEEVLMNDAKYLRAPTILAEMAKAGQLVAVVTAKDKLRNLLGHQLKGICFSAEKADQVNLEEHGVENILARVGMPVPSVYSADLSEFVFAAGLSLLTNERPDFMYLSTTDYVQHKHAPGTPEANAFYAMMDSYFKRYHEQGAIVAITADHGMNAKTDAIGRPNILFLQDLLDAQYGAQRTRVLLPITDPYVVHHGALGSYATVYLRDAVPQRDAIDFLAGIAGVEAVLTRSQACQRFELPEDRIGDLVVLGERLTVLGSAADKHDLSGLTVPLRSHGGVSEQKVPLIFNRKLVGLDSPGRLRNFDIIDLALNHLA,soluble
17,TPAGSFGLEFSFSYQKFTASFQPNYRRQTYSYSNTYEWHDANNVQNYLQLTYNQKTQLDYIEFPLFIRYDIISGAFKPFVQAGFYYAILNSATKQLNIEGVDHSGGTSRSFTEPVTIIGADDLFINSSIGAALGLGTSYKVGNIRLILDATYRMGLNNISNVQNRYISNSLSGAGDVSDDLKLNNITFSFGCLFPMKFLISPSHKAVD,not soluble
18,TPLSRSERIELQSLLSARQYDAGAPDGIIGANTRKAIRSAQQSFGWPADGYPTHELLEALRKPVGQ,not soluble
